The text below walks through data of patent publication US20250032632A1 (published 2025).

Broadly, the Kd is the equilibrium constant for the complex coming apart. Read a low Kd as tighter binding.

Positions count from the first letter of the chain named.

First the molecules themselves.
B1: Chimeric P3D12 (antibody, V domains shown)
VH: QVQLQQSGAELAKPGASVKMSCRASGYTFTSYWMHWVKQRPGQGLDWIGYIKPSTDNTEYNQKFKDKATLTADKSSSTAYMQLSSLTSEDSAVYYCARSYGNYPLMDYWGQGTSVTVSS
VL: QIVLTQSPAIMSASPGEKVTLTCSASSSVTSNYLYWYQQKPGSSPKLWIYSTSNLASGVPARFSGSGSGTSYSLTISSMEAEDAASYFCHQWSSYPPTFGSGTKLEIKR
notes: Mouse P3D12 variable regions with human constant regions
B2: G2ckc (humanized P3D12, VH-cdr + VL-cdr) (antibody, V domains shown)
VH: QVQLVQSGAEVKKPGASVKVSCKASGYTFTSYWMHWVKQAPGQGLDWIGYIKPSTDNTEYNQKFKDKATLTADKSTSTAYMELSSLRSEDTAVYYCARSYGNYPLMDYWGQGTTVTVSS
VL: QIVLTQSPATLSLSPGERATLSCSASSSVTSNYLYWYQQKPGSSPRLLIYSTSNLASGVPARFSGSGSGTSYTLTISRLEPEDFASYFCHQWSSYPPTFGSGTKLEIKR
notes: Humanized and isotype switched version of P3D12
B3: G2fkf (humanized P3D12, VH-fra + VL-fra) (antibody, V domains shown)
VH: B2 VH with V5Q, A40R, K67R, A68V, E82Q, S85N, R87I, T114S
VL: B2 VL with T10I, R46K, R78S, P81A, F84A
notes: as for B2
B4: G2aka (humanized P3D12, VH-abb/sdr + VL-abb/sdr) (antibody, V domains shown)
VH: B2 VH with I48M, N61A, K65Q, D66G, K67R, A68V
VL: B2 VL with S24R, S27Q, S71D
notes: as for B2
B5: G2vkf (humanized P3D12, VH-ven + VL-fra) (antibody, V domains shown)
VH: B2 VH with K12A, V20M, E82Q
VL: B2 VL with T10I, R46K, R78S, P81A, F84A
notes: as for B2
B6: G2cka (humanized P3D12, VH-cdr + VL-abb/sdr) (antibody, V domains shown)
VH: B2 VH
VL: B2 VL with S24R, S27Q, S71D
notes: as for B2
B7: G2akf (humanized P3D12, VH-abb/sdr + VL-fra) (antibody, V domains shown)
VH: B2 VH with I48M, N61A, K65Q, D66G, K67R, A68V
VL: B2 VL with T10I, R46K, R78S, P81A, F84A
notes: as for B2
B8: G2akc (humanized P3D12, VH-abb/sdr + VL-cdr) (antibody, V domains shown)
VH: B2 VH with I48M, N61A, K65Q, D66G, K67R, A68V
VL: B2 VL
notes: as for B2
B9: G2fkv (humanized P3D12, VH-fra + VL-ven) (antibody, V domains shown)
VH: B2 VH with V5Q, A40R, K67R, A68V, E82Q, S85N, R87I, T114S
VL: B2 VL with L11M, L13A, A19V, L48W, L79M, F84A
notes: as for B2
B10: G2vka (humanized P3D12, VH-ven + VL-abb/sdr) (antibody, V domains shown)
VH: B2 VH with K12A, V20M, E82Q
VL: B2 VL with S24R, S27Q, S71D
notes: as for B2
B11: G2fka (humanized P3D12, VH-fra + VL-abb/sdr) (antibody, V domains shown)
VH: B2 VH with V5Q, A40R, K67R, A68V, E82Q, S85N, R87I, T114S
VL: B2 VL with S24R, S27Q, S71D
notes: as for B2
B12: G2fkc (humanized P3D12, VH-fra + VL-cdr) (antibody, V domains shown)
VH: B2 VH with V5Q, A40R, K67R, A68V, E82Q, S85N, R87I, T114S
VL: B2 VL
notes: as for B2
B13: G2vkv (humanized P3D12, VH-ven + VL-ven) (antibody, V domains shown)
VH: B2 VH with K12A, V20M, E82Q
VL: B2 VL with L11M, L13A, A19V, L48W, L79M, F84A
notes: as for B2
B14: G2akv (humanized P3D12, VH-abb/sdr + VL-ven) (antibody, V domains shown)
VH: B2 VH with I48M, N61A, K65Q, D66G, K67R, A68V
VL: B2 VL with L11M, L13A, A19V, L48W, L79M, F84A
notes: as for B2
B15: G2ckv (humanized P3D12, VH-cdr + VL-ven) (antibody, V domains shown)
VH: B2 VH
VL: B2 VL with L11M, L13A, A19V, L48W, L79M, F84A
notes: as for B2
B16: G2vkc (humanized P3D12, VH-ven + VL-cdr) (antibody, V domains shown)
VH: B2 VH with K12A, V20M, E82Q
VL: B2 VL
notes: as for B2
B17: ABF46 (antibody, V domains shown)
VH: EVKLVESGGGLVQPGGSLRLSCATSGFTFTDYYMSWVRQPPGKALEWLGFIRNKANGYTTEYSASVKGRFTISRDNSQSILYLQMDTLRAEDSATYYCARDNWFAYWGQGTLVTVSA
VL: DILMTQSPSSLTVSAGEKVTMSCKSSQSLLASGNQNNYLAWHQQKPGRSPKMLIIWASTRVSGVPDRFIGSGSGTDFTLTINSVQAEDLAVYYCQQSYSAPLTFGAGTKLELK
B18: hD12-II (Antibody hD12 attached to the payload of chemical formula II, stochastic conjugation) (antibody, human IgG2, kappa)
heavy: QVQLVQSGAEVKKPGASVKVSCKASGYTFTSYWMHWVKQAPGQGLDWIGYIKPSTDNTEYNQKFKDKATLTADKSTSTAYMELSSLRSEDTAVYYCARSYGNYPLMDYWGQGTTVTVSSASTKGPSVFPLAPCSRSTSESTAALGCLVKDYFPEPVTVSWNSGALTSGVHTFPAVLQSSGLYSLSSVVTVPSSNFGTQTYTCNVDHKPSNTKVDKTVERKCCVECPPCPAPPVAGPSVFLFPPKPKDTLMISRTPEVTCVVVDVSHEDPEVQFNWYVDGVEVHNAKTKPREEQFNSTFRVVSVLTVVHQDWLNGKEYKCKVSNKGLPAPIEKTISKTKGQPREPQVYTLPPSREEMTKNQVSLTCLVKGFYPSDIAVEWESNGQPENNYKTTPPMLDSDGSFFLYSKLTVDKSRWQQGNVFSCSVMHEALHNHYTQKSLSLSPGK
light: QIVLTQSPAILSLSPGERATLSCSASSSVTSNYLYWYQQKPGSSPKLLIYSTSNLASGVPARFSGSGSGTSYTLTISSLEAEDAASYFCHQWSSYPPTFGSGTKLEIKRTVAAPSVFIFPPSDEQLKSGTASVVCLLNNFYPREAKVQWKVDNALQSGNSQESVTEQDSKDSTYSLSSTLTLSKADYEKHKVYACEVTHQGLSSPVTKSFNRGEC
modifications: payload of chemical formula II on one or more cysteine residues of the antibody at random positions (chain not stated); payload of chemical formula II (pyrrolobenzodiazepine toxin + linking group, maleimide) on one or more cysteine residues of the antibody at random positions
notes: also called hD12-vc-II
B19: hD12-IV (Antibody hD12 attached to the payload of chemical formula IV, stochastic conjugation) (antibody, human IgG2, kappa)
heavy: B18 heavy
light: B18 light
modifications: payload of chemical formula IV on one or more cysteine residues of the antibody at random positions (chain not stated); payload of chemical formula IV (pyrrolobenzodiazepine toxin + linking group, maleimide) on one or more cysteine residues of the antibody at random positions
notes: Antibody-drug conjugate; also called hD12-vc-IV
B20: hD12-VI (Antibody hD12 attached to the payload of chemical formula VI, stochastic conjugation) (antibody, human IgG2, kappa)
heavy: B18 heavy
light: B18 light
modifications: payload of chemical formula VI on one or more cysteine residues of the antibody at random positions (chain not stated); payload of chemical formula VI (pyrrolobenzodiazepine toxin + linking group, maleimide) on one or more cysteine residues of the antibody at random positions
notes: Antibody-drug conjugate; also called hD12-vc-VI

T2 sequence (P08581 25-932 limits assumed): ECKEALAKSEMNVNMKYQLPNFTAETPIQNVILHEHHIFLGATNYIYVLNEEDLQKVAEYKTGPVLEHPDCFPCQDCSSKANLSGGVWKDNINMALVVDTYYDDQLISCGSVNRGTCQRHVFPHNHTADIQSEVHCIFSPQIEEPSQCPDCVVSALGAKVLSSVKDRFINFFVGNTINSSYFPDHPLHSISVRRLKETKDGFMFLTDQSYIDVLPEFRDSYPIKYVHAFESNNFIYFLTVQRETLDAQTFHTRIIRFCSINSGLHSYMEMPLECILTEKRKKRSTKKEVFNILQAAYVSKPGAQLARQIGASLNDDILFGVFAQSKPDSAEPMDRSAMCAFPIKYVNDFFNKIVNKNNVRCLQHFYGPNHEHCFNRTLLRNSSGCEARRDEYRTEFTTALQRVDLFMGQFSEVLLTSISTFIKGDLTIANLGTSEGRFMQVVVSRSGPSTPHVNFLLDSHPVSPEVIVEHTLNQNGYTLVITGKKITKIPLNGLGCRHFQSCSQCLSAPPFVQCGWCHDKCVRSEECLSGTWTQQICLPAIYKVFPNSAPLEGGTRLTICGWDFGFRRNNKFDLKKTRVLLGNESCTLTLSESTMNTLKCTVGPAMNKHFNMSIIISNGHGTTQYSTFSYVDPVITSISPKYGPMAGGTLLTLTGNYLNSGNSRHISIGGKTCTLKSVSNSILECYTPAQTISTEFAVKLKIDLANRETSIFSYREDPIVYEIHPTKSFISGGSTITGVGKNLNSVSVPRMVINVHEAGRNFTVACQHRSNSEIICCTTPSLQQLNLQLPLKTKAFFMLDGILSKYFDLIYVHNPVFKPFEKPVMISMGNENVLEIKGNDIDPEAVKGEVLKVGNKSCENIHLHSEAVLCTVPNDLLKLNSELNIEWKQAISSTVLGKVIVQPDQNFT
T5 sequence (P97523 25-935 limits assumed): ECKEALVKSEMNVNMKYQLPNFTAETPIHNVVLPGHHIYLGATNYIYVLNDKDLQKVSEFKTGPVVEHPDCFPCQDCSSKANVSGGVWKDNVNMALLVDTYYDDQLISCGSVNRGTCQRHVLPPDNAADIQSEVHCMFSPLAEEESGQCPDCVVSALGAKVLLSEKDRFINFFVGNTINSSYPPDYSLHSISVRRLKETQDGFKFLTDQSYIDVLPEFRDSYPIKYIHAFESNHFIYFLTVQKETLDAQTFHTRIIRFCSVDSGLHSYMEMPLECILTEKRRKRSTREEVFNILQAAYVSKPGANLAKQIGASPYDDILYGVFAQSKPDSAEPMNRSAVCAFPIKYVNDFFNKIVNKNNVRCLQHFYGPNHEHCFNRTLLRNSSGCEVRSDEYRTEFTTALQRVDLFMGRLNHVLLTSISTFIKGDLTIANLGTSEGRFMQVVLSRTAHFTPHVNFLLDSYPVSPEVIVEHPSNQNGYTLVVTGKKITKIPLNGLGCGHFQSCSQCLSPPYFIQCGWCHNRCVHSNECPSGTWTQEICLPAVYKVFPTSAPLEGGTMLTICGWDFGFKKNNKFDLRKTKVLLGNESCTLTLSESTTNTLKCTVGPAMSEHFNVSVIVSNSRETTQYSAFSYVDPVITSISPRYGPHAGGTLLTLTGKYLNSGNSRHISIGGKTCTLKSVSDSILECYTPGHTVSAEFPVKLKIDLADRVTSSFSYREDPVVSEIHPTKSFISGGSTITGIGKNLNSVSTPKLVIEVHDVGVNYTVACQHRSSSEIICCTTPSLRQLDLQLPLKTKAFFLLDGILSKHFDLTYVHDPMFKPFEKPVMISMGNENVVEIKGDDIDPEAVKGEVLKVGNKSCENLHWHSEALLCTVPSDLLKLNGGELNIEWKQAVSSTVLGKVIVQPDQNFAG
T1 sequence (P97523 25-935 limits assumed): as above

The first test addresses T1, rat cMET-Fc (rat, UniProt P97523 25-935).
T1 construct: Construct named only as rMET-Fc; also called rMET-Fc; not shown: Fc part
Put plainly: SPR, rMET-Fc.
The molecule B1 displayed a dissociation constant (Kd) of 30 nM.

In turn, B2 showed a Kd of 31 nM.

With B3, the Kd worked out at 30 nM. This Kd and that of the molecule before are within 1.5-fold of each other.

Take B4: the Kd came to 26 nM.

B5 yielded a Kd of 8 nM.

The molecule B6 yielded an equilibrium dissociation constant (Kd) of 29 nM.

B7 came in with a Kd of 23 nM.

As to B8, binding was put at a Kd of 38 nM. Against the preceding molecule, the Kd is about 1.7-fold higher.

Another test addresses T2, human cMET (ELISA antigen) (human, UniProt P08581 25-932, limits assumed).
T2 construct: also called hMET
Put plainly: ELISA on human cMET, relative to parental P3D12.
Consider B2, for which the “ELISA hMET vs parental” value amounted to 1 fold vs parental.

With B9, the “ELISA hMET vs parental” value was found to be 1.7 fold vs parental.

Turning to B3, the “ELISA hMET vs parental” value was found to be 1.7 fold vs parental.

As to B10, the “ELISA hMET vs parental” value came to 0.9 fold vs parental.

On to B11, for which the “ELISA hMET vs parental” value was 1.8 fold vs parental.

For the molecule B4, the “ELISA hMET vs parental” value amounted to 0.9 fold vs parental.

For the molecule B12, the “ELISA hMET vs parental” value is 1.7 fold vs parental.

Turning to B13, the “ELISA hMET vs parental” value worked out at 1.6 fold vs parental.

Consider B14, for which the “ELISA hMET vs parental” value is 1.6 fold vs parental.

Regarding B15, the “ELISA hMET vs parental” value worked out at 1.1 fold vs parental.

With B5, the “ELISA hMET vs parental” value came out at 1.1 fold vs parental.

With B16, the “ELISA hMET vs parental” value worked out at 1.1 fold vs parental.

In the case of B6, the “ELISA hMET vs parental” value turned out to be 1.3 fold vs parental.

Take B7: the “ELISA hMET vs parental” value turned out to be 1 fold vs parental.

Take B8: the “ELISA hMET vs parental” value is 1.3 fold vs parental.

A further test deals with T3, human cMET-Fc fusion protein (extracellular domain of human cMET fused to human Fc) (human, UniProt P08581 25-932).
T3 construct: Mature cMET is cleaved into alpha and beta subunits; also called hMET-Fc; hMet-Fc
T3 sequence (P08581 25-932): as the sequence (P08581 25-932 limits assumed) above
In words: SPR with hMet-Fc.
The molecule B17 showed a Kd of 0.7 nM. In other words, the sub-nanomolar range.

The next test concerns the target T3, human cMET-Fc fusion protein …. Put plainly: SPR, hMET-Fc. (In general: Surface plasmon resonance follows binding to a sensor surface in real time, without labels.)
Consider B1, for which binding was put at a Kd of 0.7 nM.

For the molecule B2, the Kd stood at 0.9 nM.

Take B3: the Kd is 0.4 nM.

For the molecule B4, the Kd was determined as 0.9 nM.

Regarding B5, the Kd is 0.3 nM.

In turn, B6 displayed a Kd of 0.4 nM.

Regarding B7, the Kd turned out to be 0.6 nM. This Kd and that of the molecule before are within 1.5-fold of each other.

For B8, the Kd stood at 0.7 nM.

For the next test, the target named is T4, Recombinant Human c-Met-10X His (human, UniProt P08581 25-932).
T4 construct: In-house reagent (Lot #140924TA); not shown: 10X His tag
T4 sequence (P08581 25-932 limits assumed): as above
In words: ELISA, plate-bound human cMET (FIGS. 17A, 17B). The text has this:
Relative binding strength is indicated by luminescence (y-axis).
In general terms: ELISA stands for enzyme-linked immunosorbent assay.
For B18, the binding result was “binds”.

On to B19, for which the binding result is “binds”.

On to B20, for which the binding result was “binds”.

Another test concerns the target T5, rat cMET (ELISA antigen) (rat, UniProt P97523 25-935, limits assumed).
T5 construct: also called rMET
Put plainly: ELISA on rat cMET, relative to parental P3D12.
Take B2: the “ELISA rMET vs parental” value turned out to be 2 fold vs parental.

As for B9, the “ELISA rMET vs parental” value turned out to be 1.2 fold vs parental.

Turning to B3, the “ELISA rMET vs parental” value came to 1.4 fold vs parental.

Take B10: the “ELISA rMET vs parental” value turned out to be 2.7 fold vs parental.

Consider B11, for which the “ELISA rMET vs parental” value worked out at 3.8 fold vs parental.

On to B4, for which the “ELISA rMET vs parental” value worked out at 1.1 fold vs parental.

Consider B12, for which the “ELISA rMET vs parental” value is 2.3 fold vs parental.

Consider B13, for which the “ELISA rMET vs parental” value was 1.6 fold vs parental.

For B14, the “ELISA rMET vs parental” value was determined as 1.3 fold vs parental.

Regarding B15, the “ELISA rMET vs parental” value was found to be 1 fold vs parental.

For the molecule B5, the “ELISA rMET vs parental” value stood at 1 fold vs parental.

As to B16, the “ELISA rMET vs parental” value was 1.9 fold vs parental.

As to B6, the “ELISA rMET vs parental” value was determined as 2.7 fold vs parental.

For the molecule B7, the “ELISA rMET vs parental” value is 0.5 fold vs parental.

As to B8, the “ELISA rMET vs parental” value is 0.7 fold vs parental.
